Measurements as given in the RNAGym collection of RNA variant scans (doi:10.7554/elife.90254).

B1: LINE1-full (parent)
chain: UACGUAGGUGGUUUUCCCCUGAUAGUGCUAAGGGGGCCUGGAAGUUUGGACUGGGCAGAGCUCAACACAGCGUGGCAAAGUGGCUGUGGCUAGACUGCCUCUCUGGAUUCCUCGUCACUCAGCAGGGCAUCUCUGAGAGAAAUGCC

Variants of: B1
Assay: self-cleavage, relative activity (ratio to wild type); higher = more cleavage; in vitro, sequencing; the parent is a self-cleaving ribozyme

Variant	self-cleavage
U23C C56U	0.23
U23A A30G	2.09
U20C U47A	1.19
A22U A67G	0.41
G21A G82A	2
G21A A129U	1.17
U20C U108C	1.62
U20C U132G	0.46
A22G C116U	0.24
U23A A31C	1.31
U23C A121G	2
U23C A121U	0.66
U23C G83A	1.02
U23A A50G	1.25
A22G U45G	0.82
A22G U45A	0.94
A22G C76U	1.39
A22U G122A	1.19
U20G A136U	0.98
A22G C71U	0.55
U23C U26C	1.29
A22G A77C	1.09
A22G A77U	0.79
A22G A77G	1.77

Variant	self-cleavage
U20C U134A	0.96
U20C U134C	1.57
U20C U134G	0.77
A22U A24G	1.95
A22U G126A	1.5
U23A A141G	1.21
A22U G75A	1
G21U U96C	0.06
A22G G49A	0.84
U20G U96C	0.26
A22G A67C	0.23
A22G U47C	1.18
A22U A69U	0.12
U20C U109C	1.34
U20C U109A	1.54
G21A U45A	1.58
G21A U45C	0.84
U23C A31U	0.77
A22G U143A	1.19
A22G U143C	0.97
A22G	1.12
A22U	1.11
A22C	1.51
A22G A43G	1.02

Variant	self-cleavage
U23A A67U	0.19
A22U U62A	0
U20G A57U	0.21
U20G A77G	1.36
A22G G89A	0.09
A22G A69C	0
U20G A79G	1.17
A22C A77U	0.35
G21A A94G	0.1
A22U U26A	0.5
A22G U96A	0.13
U23C G122A	1.61
U23C A79U	2.06
U23C A79G	1.4
U23A U52A	1.37
A22G G122C	1.31
A22G G122A	0
U23C G144A	1.28
U20G C37A	1.04
U23C C133A	1.09
A22C U143A	1.53
U23C G34A	1.26
U23C G34U	1.44
A22G G82A	1.94

Variant	self-cleavage
U20G	1.1
A22G G127U	1.67
U23C C131U	1.84
A22U C38U	1.18
A22U A79G	0.96
G21A A31U	1.43
U20G A67U	0.11
A22U U91C	0.2
A22U U91A	0.3
A22G A129G	1.45
A22G A129U	0.67
U23C A78U	2.06
A22U A107U	1.96
A22G A140G	0.8
A22G A140U	1.05
U20G A69G	1.05
G21A A67G	0.48
G21A U96A	0.06
A22G C61U	0.07
U23A A65U	0.53
A22U U143G	1.27
U20C U104C	1.51
U20C U112G	0.54
U20G A121G	1.27

Variant	self-cleavage
A22C A129U	1.96
A22U A117G	0.65
G21A U91C	0.35
G21C U143C	1.97
A22U A129G	2.09
G21U G72A	1.62
U20C U39A	1.48
U20C U39C	1.28
U23C A67U	0.18
U23A A124G	0.94
A22U G55A	0.37
U23A A64G	0.23
U23A A64U	0.34
U23C A57U	0.18
U23C A57G	1.2
A22G A50U	1.32
U23A U29C	1.02
U23A U29A	1.24
A22G U109C	1.36
A22U A30G	1.98
A22G A117C	2.12
A22U A138C	0.92
A22U A138G	1.09
U23A U108A	1.44

Variant	self-cleavage
U23C A64G	0.35
U23A A92G	0.12
U20G U85A	0.24
G21A U81A	1.8
A22G G54U	0.23
A22G G54A	0.75
U23A U47C	1.88
U23C A136G	1.27
U20G G41U	0.84
G21U U85G	0.08
U23C A65C	0
U23A A77U	1.24
A22U U85A	0.08
G21A U46C	1.31
A22G U81A	1.67
A22G A31G	0.35
A22G A31U	0.86
U23C C113A	0.4
U23C C118U	1.81
A22C A140G	1.65
A22C U85C	0.35
U23C A141G	1.4
A22U G25A	0.7
A22G A94U	0.37

Variant	self-cleavage
A22G A94C	0.07
A22G A94G	0.56
U23C A138G	1.95
A22U G40U	0.87
U20C U100A	0.81
U20C U100C	1.69
G21A U29C	1.04
A22U U23C	0.87
U20G G34A	0.69
U20C U62C	0.1
U23C A69U	0.02
A22G G139A	1.82
G21U U119C	1.84
U23A C98U	0.26
U20C U102C	1.25
U20C U102A	1.21
A22C U73C	1.88
A22U U108C	1.19
A22C U119A	2.09
G21A U39C	0.78
U23A A57G	0.94
A22G U46C	1.04
A22G U100C	1.75
A22G U100A	0.98

Variant	self-cleavage
U23C A117G	1.27
U23C A117U	1.75
A22C A50G	1.86
A22G G40A	0.55
U20C U52A	0.69
U23C G93U	0.04
U23A U104C	0.84
A22G C37U	0.94
A22U G34A	0.82
A22G A59U	0.33
A22G A59C	1.31
A22U U96A	0.09
A22U U96G	0.53
U20G U81C	1.08
U20G U81A	2.03
A22G U62C	0.09
A22G G33U	1.25
G21A U109A	0.64
G21A U109C	0.95
A22G U23C	0.63
A22G U52G	0.92
A22G U52C	1.56
A22G U102C	1.04
A22G U102A	1.5

Variant	self-cleavage
U23C A24C	1.09
A22U A77G	2.23
A22U A77U	0.62
G21A C146U	1.56
G21U U62A	0.02
G21U C51A	1.48
A22G U104A	1.38
A22G U104C	1.26
G21A U112C	1.02
U23A U73A	1.16
U20C U26C	1.26
G21U A77G	1.7
A22G G80U	1
A22G A78C	1.45
U23A A129G	2.15
G21A A59G	0.04
A22U U87A	0.1
G21A G33A	1.39
U23C A124G	1.52
G21U A65C	0
U23C C111U	1.34
G21A A140G	1.3
A22G U108A	1.74
A22G C133U	0.58

Variant	self-cleavage
A22G G72A	1.94
G21U U91C	0.45
A22G G53U	1.29
U23C G55U	0.22
A22U U39C	1.2
A22G A79G	0.76
G21A U115A	1.46
U20G G48A	0.43
G21A U134A	1.17
A22G U85A	0.12
U23A A142G	1.12
A22G A24G	0.98
A22G G35U	0.6
G21A U102A	1.14
A22U A42G	1.54
A22G G44A	1.25
G21A U104A	1.27
A22C A92U	1.7
G21U U115C	2.18
A22G A141G	1.27
A22U A43G	1.01
A22G G75A	1.13
G21A A77U	1.18
G21A A77G	2.18

Variant	self-cleavage
G21A A50G	0.71
G21A A50C	0.9
A22U A50U	0.39
A22U U47C	1.04
A22U U47A	1.44
U23A U39A	1.42
A22U A141G	1.29
A22G U119G	1.51
U23A A136G	1.31
U23A A136U	1.7
U23A U46A	0.6
U23C A94U	0.48
A22U A121G	1
U20G U112C	0.76
U20C U29C	1.27
U20C U29A	0.62
A22G A42G	0.93
A22G A42U	1.31
G21A A78G	1.31
U23A U85C	0.28
U23C G72U	0
U23C G35A	1.4
A22C A142G	1.27
A22U U130A	1.38

Variant	self-cleavage
U23A U81A	1.7
A22U G114A	1.44
U20G A22G	0.41
U20C U87C	0.24
U20C U87A	0.1
U20G A142G	1.09
A22U G106U	1.72
A22G U73A	1.29
U23A A117G	2.16
A22U U100C	1.54
U23C G27A	1.8
A22G C66U	0.07
G21U A94G	0.18
G21A A117U	1.55
A22U U46A	1.2
A22U U102A	1.41
U20C U91C	0.76
U20C U91A	0.55
U23C G48A	1.44
A22G C99U	0.23
U23A U45A	1.28
A22G A92C	0.12
A22U A31G	1.04
G21A U85C	0.18

Variant	self-cleavage
U20C U115A	1.54
A22G U91A	0.71
A22G U91C	0.65
A22G G36A	1.36
A22G G93A	0.03
A22C A141G	1.34
A22U A65G	0.14
U20C U46G	1.52
U20C U46A	0.85
A22U C123A	1.17
A22G A142G	1.23
G21A C28U	1.22
G21A A65U	0.21
U20G U108C	1.97
U23C C63U	0.35
U23C C61A	0.06
A22G U39A	1.72
A22G U39C	1.14
A22G U134C	0.96
A22G U134A	1.03
U20C U96C	0.08
A22G U115A	1.52
A22G U115C	1.18
A22U G72A	1.27

Variant	self-cleavage
U20C U143A	1.5
U23C A42U	1.22
U20G U91A	0.47
A22U U115C	1.77
U23A G93A	0.08
A22G A121G	0.95
A22G A121U	1
A22U U104A	1.01
A22U U104C	1.31
A22U U119G	2.23
U23A G144A	1.85
A22G U132G	1.67
A22G G86A	0.07
U20G U119C	1.74
U23A U26C	0.99
G21A A142G	1.66
A22G U29C	1.42
U23C A142U	2.35
A22G A107G	0.82
A22U C103U	1.42
A22G A138G	1.25
U20G C95U	0.29
